The results in this text go back to PMC11236707, “dsRNA formation leads to preferential nuclear export and gene expression”.

The target of data set [1] is T1, Mex67 (in Mex67-Mtr2 heterodimer);Mtr2 (in Mex67-Mtr2 heterodimer) (Saccharomyces cerevisiae;Saccharomyces …, UniProt Q99257;P34232 1-599;1-184, |).
T1 sequence 1: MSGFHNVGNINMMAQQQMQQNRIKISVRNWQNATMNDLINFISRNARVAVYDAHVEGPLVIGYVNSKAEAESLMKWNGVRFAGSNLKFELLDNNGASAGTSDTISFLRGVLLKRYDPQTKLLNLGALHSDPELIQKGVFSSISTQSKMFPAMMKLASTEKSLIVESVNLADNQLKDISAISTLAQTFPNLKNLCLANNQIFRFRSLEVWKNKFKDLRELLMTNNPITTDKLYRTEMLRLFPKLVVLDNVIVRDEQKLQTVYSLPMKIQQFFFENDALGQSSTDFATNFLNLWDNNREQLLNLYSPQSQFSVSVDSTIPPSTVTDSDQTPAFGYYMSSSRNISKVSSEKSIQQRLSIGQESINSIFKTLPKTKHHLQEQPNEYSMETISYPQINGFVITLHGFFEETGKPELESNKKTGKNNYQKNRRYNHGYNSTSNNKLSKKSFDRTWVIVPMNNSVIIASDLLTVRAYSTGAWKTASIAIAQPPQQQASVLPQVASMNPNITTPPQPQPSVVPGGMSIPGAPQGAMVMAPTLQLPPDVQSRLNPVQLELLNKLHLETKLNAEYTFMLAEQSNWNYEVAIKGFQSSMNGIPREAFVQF
T1 sequence 2: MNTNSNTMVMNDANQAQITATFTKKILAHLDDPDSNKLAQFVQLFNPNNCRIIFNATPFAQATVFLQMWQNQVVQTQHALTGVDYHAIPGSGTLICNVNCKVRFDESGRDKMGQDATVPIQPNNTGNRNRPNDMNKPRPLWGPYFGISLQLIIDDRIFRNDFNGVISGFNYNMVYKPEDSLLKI
Description: competition; N4 added to complex preformed on N1; labels switched, same effect; 30 mM HEPES-KOH, 160 mM KCl, pH 7.6, Ribolock, 30 C 15 min; 4 uM RNA with 4-44 uM Mex67-Mtr2 (competition 3 uM RNA, 12 uM protein); 0.5% agarose, 1x TAE pH 9.5, 4 C. The note with it: protein: recombinant;recombinant; HisFF purification;; copies: 1;1; label: Cy5 on one strand; blunt.

Data set [2] concerns the target T1, Mex67 (in Mex67-Mtr2 heterodimer);Mtr2 …. Description: EMSA; 4 uM RNA; full upshift at 2-fold, saturated at 5-fold molar excess; 30 mM HEPES-KOH, 160 mM KCl, pH 7.6, Ribolock, 30 C 15 min; 4 uM RNA with 4-44 uM Mex67-Mtr2 (competition 3 uM RNA, 12 uM protein); 0.5% agarose, 1x TAE pH 9.5, 4 C. The note with it: protein: recombinant;recombinant; HisFF purification;; copies: 1;1; label: FAM; single strand.

Data set [3] has the same target. As to the kind of experiment: EMSA; 4 uM RNA; full upshift at 3-fold, saturated at 10-fold molar excess; 30 mM HEPES-KOH, 160 mM KCl, pH 7.6, Ribolock, 30 C 15 min; 4 uM RNA with 4-44 uM Mex67-Mtr2 (competition 3 uM RNA, 12 uM protein); 0.5% agarose, 1x TAE pH 9.5, 4 C. The settings on record: protein: recombinant;recombinant; HisFF purification;; copies: 1;1; label: FAM on one strand; blunt. (In EMSA bound probe runs differently from free probe, usually more slowly.)

B1: 36-bp dsRNA, Cy5 (dsRNA)
RNA 1: UUAUAUGUCUUGUUCUCUUGUAUCUGUUCUUGUUGU
RNA 2: ACAACAAGAACAGAUACAAGAGAACAAGACAUAUAA
As to B1, in data set [1], the binding result was “binds”.

For the molecule UUUUUUUUAUUGCCUGGUUGCCUGGUUAUUUCUAUU (ssRNA) [36-nt ssRNA, FAM], the binding result in data set [2] was “binds”.

B2: 36-bp dsRNA, FAM (dsRNA)
RNA 1: UUUUUUUUAUUGCCUGGUUGCCUGGUUAUUUCUAUU
RNA 2: AAUAGAAAUAACCAGGCAACCAGGCAAUAAAAAAAA
On to B2, for which the binding result in data set [3] was “binds”.
